Data: the supplement of paper PMC10126150
± gives the standard deviation of the averaged measurements.

Tested on: ATP
Experiment: switch fluorescence ratio, 500 uM ATP over buffer (Cy3 cluster intensity, sum of 5 cycles each) (fold (ratio)); higher = stronger signal-on switching upon ATP binding; sequences stand for … in TCGTCGGCAGCGTCAGATGTGTATAAGAGACAGTTTTTTTTTTTTTTTTTTTTTTTTT…TC
Settings: aptamer strand: ATP DNA aptamer (quencher-CACCTGGGGGAGTATTGCGGAGGAAGG + anchor), 100 nM annealed; ATP concentration: 500 uM
Summary of the method: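 Clusters carrying Cy3-labelled switching strands on a modified Illumina MiSeq flow-cell were annealed to 100 nM quencher-labelled ATP aptamer and imaged in selection buffer. They were imaged again after 15 min with 500 uM ATP at 22 °C, over five buffer/ATP cycles with NaOH stripping and re-annealing in between. For each cluster, the fluorescence ratio is the summed Cy3 intensity of the target cycles divided by that of the buffer cycles, averaged per switch-domain sequence. Clusters outside 100-1000 RFU were left out.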
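Note: ATP exposure 15 min at 22 °C before imaging.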

ATGGTGTGCG
switch fluorescence ratio: 1.01 ± 0.025

ATGGTGTGGG
switch fluorescence ratio: 1.03 ± 0.021

ATGGTGTTTT
switch fluorescence ratio: 0.9803 ± 0.008

ATGGTTAGCT
switch fluorescence ratio: 1.02 ± 0.027

ATGGTTAGGG
switch fluorescence ratio: 1.03 ± 0.033

ATGGTTCCAC
switch fluorescence ratio: 0.997 ± 0.024

ATGGTTTAGG
switch fluorescence ratio: 0.988 ± 0.038

ATGGTTTGGG
switch fluorescence ratio: 0.99 ± 0.045

ATGGTTTTG
switch fluorescence ratio: 0.975 ± 0.047

ATGGTTTTT
switch fluorescence ratio: 0.984 ± 0.022

ATGTAACTTT
switch fluorescence ratio: 1.16 ± 0.27

ATGTAAGAGG
switch fluorescence ratio: 0.9754 ± 0.0093

ATGTAAGGAG
switch fluorescence ratio: 1.02 ± 0.018

ATGTAATGGT
switch fluorescence ratio: 1.01 ± 0.03

ATGTAATTAA
switch fluorescence ratio: 0.964 ± 0.046

ATGTAATTTC
switch fluorescence ratio: 0.9987 ± 0.0036

ATGTACATTT
switch fluorescence ratio: 1.068 ± 0.0059

ATGTAGACGG
switch fluorescence ratio: 0.984 ± 0.011

ATGTAGAGGC
switch fluorescence ratio: 0.987 ± 0.026

ATGTAGATAT
switch fluorescence ratio: 1.01 ± 0.021

ATGTAGCATC
switch fluorescence ratio: 1.56 ± 0.028

ATGTAGGGTC
switch fluorescence ratio: 1.02 ± 0.02

ATGTAGGGTG
switch fluorescence ratio: 1.008 ± 0.0039

ATGTAGGTTG
switch fluorescence ratio: 0.988 ± 0.029

ATGTATATAA
switch fluorescence ratio: 0.985 ± 0.018

ATGTATGTGC
switch fluorescence ratio: 0.997 ± 0.041

ATGTATGTTG
switch fluorescence ratio: 0.982 ± 0.072

ATGTATTACT
switch fluorescence ratio: 1.03 ± 0.033

ATGTCAGAGG
switch fluorescence ratio: 0.977 ± 0.041

ATGTCAGCGC
switch fluorescence ratio: 1 ± 0.044

ATGTCAGGGG
switch fluorescence ratio: 1.14 ± 0.021

ATGTCAGGTG
switch fluorescence ratio: 4.1 ± 0.71

ATGTCCGGG
switch fluorescence ratio: 0.968 ± 0.045

ATGTCCTAGC
switch fluorescence ratio: 1.03 ± 0.0038

ATGTCGGGCA
switch fluorescence ratio: 0.986 ± 0.064

ATGTCGTGTG
switch fluorescence ratio: 0.9923 ± 0.0066

ATGTGAGGGG
switch fluorescence ratio: 0.986 ± 0.029

ATGTGCGGGG
switch fluorescence ratio: 0.99 ± 0.019

ATGTGGAATG
switch fluorescence ratio: 0.994 ± 0.037

ATGTGGAGAC
switch fluorescence ratio: 0.9921 ± 0.005

ATGTGGGTCT
switch fluorescence ratio: 1.02 ± 0.056

ATGTGGGTGT
switch fluorescence ratio: 1.02 ± 0.013

ATGTGGGTTG
switch fluorescence ratio: 1.03 ± 0.022

ATGTGGTGAC
switch fluorescence ratio: 0.978 ± 0.039

ATGTGGTTCC
switch fluorescence ratio: 1.004 ± 0.0025

ATGTGTATTT
switch fluorescence ratio: 1.03 ± 0.023

ATGTGTGGGG
switch fluorescence ratio: 1.01 ± 0.063

ATGTGTGTTG
switch fluorescence ratio: 1.04 ± 0.046

ATGTTAAAGG
switch fluorescence ratio: 0.998 ± 0.016

ATGTTAACGG
switch fluorescence ratio: 1.01 ± 0.012

ATGTTACATT
switch fluorescence ratio: 1.01 ± 0.038

ATGTTAGATT
switch fluorescence ratio: 0.996 ± 0.029

ATGTTAGCGT
switch fluorescence ratio: 0.9941 ± 0.0048

ATGTTAGTAC
switch fluorescence ratio: 1.03 ± 0.058

ATGTTATGG
switch fluorescence ratio: 1.01 ± 0.011

ATGTTATTA
switch fluorescence ratio: 0.975 ± 0.021

ATGTTATTGT
switch fluorescence ratio: 0.98 ± 0.049

ATGTTATTTA
switch fluorescence ratio: 1.01 ± 0.025

ATGTTCAGTT
switch fluorescence ratio: 0.974 ± 0.012

ATGTTGAACT
switch fluorescence ratio: 0.99 ± 0.002

ATGTTGAGCC
switch fluorescence ratio: 0.9874 ± 0.0022

ATGTTGGGTT
switch fluorescence ratio: 0.982 ± 0.031

ATGTTGTCTG
switch fluorescence ratio: 1 ± 0.035

ATGTTGTGGG
switch fluorescence ratio: 1 ± 0.013

ATGTTGTTAC
switch fluorescence ratio: 1.01 ± 0.025

ATGTTGTTGA
switch fluorescence ratio: 0.998 ± 0.024

ATGTTTAAGC
switch fluorescence ratio: 1.05 ± 0.048

ATGTTTCACA
switch fluorescence ratio: 0.951 ± 0.011

ATGTTTCTAT
switch fluorescence ratio: 0.982 ± 0.027

ATGTTTGATT
switch fluorescence ratio: 0.999 ± 0.047

ATGTTTGGCC
switch fluorescence ratio: 1.04 ± 0.041

ATGTTTGTAG
switch fluorescence ratio: 0.979 ± 0.045

ATGTTTTGAA
switch fluorescence ratio: 0.9789 ± 0.005

ATGTTTTGGG
switch fluorescence ratio: 1.01 ± 0.024

ATGTTTTTGG
switch fluorescence ratio: 1.1 ± 0.22

ATTAAAGGGT
switch fluorescence ratio: 1.005 ± 0.0084

ATTAAATAGA
switch fluorescence ratio: 1.02 ± 0.014

ATTAAATTGT
switch fluorescence ratio: 0.9919 ± 0.0062

ATTAACCATT
switch fluorescence ratio: 1.01 ± 0.014

ATTAACTAAA
switch fluorescence ratio: 1.02 ± 0.017

ATTAACTTTA
switch fluorescence ratio: 1.01 ± 0.035

ATTAAGCACC
switch fluorescence ratio: 1.3 ± 0.079

ATTAAGGCAA
switch fluorescence ratio: 1.1 ± 0.014

ATTAAGGCTA
switch fluorescence ratio: 0.983 ± 0.036

ATTAAGGGGC
switch fluorescence ratio: 1.02 ± 0.017

ATTAAGTTGA
switch fluorescence ratio: 0.987 ± 0.041

ATTAATGGCG
switch fluorescence ratio: 0.9554 ± 0.009

ATTAATTCGT
switch fluorescence ratio: 0.996 ± 0.071

ATTAATTTTC
switch fluorescence ratio: 0.997 ± 0.039

ATTACAAATT
switch fluorescence ratio: 1.03 ± 0.05

ATTACAGGGC
switch fluorescence ratio: 1.03 ± 0.012

ATTACCCTCG
switch fluorescence ratio: 1.02 ± 0.035

ATTACCTGTT
switch fluorescence ratio: 1.03 ± 0.047

ATTACGTACT
switch fluorescence ratio: 1.77 ± 0.11

ATTACTATGG
switch fluorescence ratio: 1.02 ± 0.02

ATTACTGTGT
switch fluorescence ratio: 0.99 ± 0.02

ATTACTTATC
switch fluorescence ratio: 1.02 ± 0.018

ATTAGAGGGG
switch fluorescence ratio: 0.9862 ± 0.0067

ATTAGAGGTT
switch fluorescence ratio: 0.9898 ± 0.0094

ATTAGAGTGT
switch fluorescence ratio: 0.965 ± 0.04

ATTAGGAAAT
switch fluorescence ratio: 1.08 ± 0.1

ATTAGGAATG
switch fluorescence ratio: 1.01 ± 0.027

ATTAGGAGAC
switch fluorescence ratio: 1.005 ± 0.008

ATTAGGGACT
switch fluorescence ratio: 0.992 ± 0.035

ATTAGGGGGC
switch fluorescence ratio: 1.04 ± 0.061

ATTAGGGTGG
switch fluorescence ratio: 0.992 ± 0.018

ATTAGGGTTT
switch fluorescence ratio: 1.04 ± 0.061

ATTAGGTCTA
switch fluorescence ratio: 1 ± 0.014

ATTAGTAGAT
switch fluorescence ratio: 0.97 ± 0.013

ATTAGTGGGG
switch fluorescence ratio: 0.978 ± 0.013

ATTAGTGGGT
switch fluorescence ratio: 0.9826 ± 0.005

ATTAGTTGTA
switch fluorescence ratio: 1 ± 0.025

ATTATAAGTG
switch fluorescence ratio: 0.96 ± 0.016

ATTATACGGG
switch fluorescence ratio: 1.052 ± 0.007

ATTATATGAC
switch fluorescence ratio: 1.06 ± 0.05

ATTATATGCG
switch fluorescence ratio: 0.992 ± 0.0024

ATTATATGGA
switch fluorescence ratio: 0.956 ± 0.01

ATTATATTTA
switch fluorescence ratio: 1.02 ± 0.028

ATTATCCCGG
switch fluorescence ratio: 0.99 ± 0.041

ATTATGAATC
switch fluorescence ratio: 1.02 ± 0.078

ATTATGGTTT
switch fluorescence ratio: 1 ± 0.022

ATTATGTAGA
switch fluorescence ratio: 0.9958 ± 0.0091

ATTATGTCAG
switch fluorescence ratio: 0.991 ± 0.024

ATTATGTGGC
switch fluorescence ratio: 0.9803 ± 0.0086

ATTATGTTTA
switch fluorescence ratio: 1 ± 0.022

ATTATTACGG
switch fluorescence ratio: 1 ± 0.022

ATTATTCACC
switch fluorescence ratio: 1.01 ± 0.02

ATTATTCGGA
switch fluorescence ratio: 1.008 ± 0.0027

ATTATTTTGG
switch fluorescence ratio: 1.01 ± 0.018

ATTCAAAAAT
switch fluorescence ratio: 1.04 ± 0.016

ATTCAATCCA
switch fluorescence ratio: 0.989 ± 0.012

ATTCACATCG
switch fluorescence ratio: 1.01 ± 0.06

ATTCATGGGA
switch fluorescence ratio: 1.02 ± 0.031

ATTCATTCGG
switch fluorescence ratio: 0.992 ± 0.026

ATTCATTTTC
switch fluorescence ratio: 1.02 ± 0.015

ATTCCAAGGT
switch fluorescence ratio: 0.997 ± 0.029

ATTCCAGAGG
switch fluorescence ratio: 1.01 ± 0.02

ATTCCCAGGG
switch fluorescence ratio: 2.067 ± 0.017

ATTCCGGGAG
switch fluorescence ratio: 1.07 ± 0.064

ATTCGATATA
switch fluorescence ratio: 1.02 ± 0.014

ATTCGATTTT
switch fluorescence ratio: 0.999 ± 0.019

ATTCGCAGCA
switch fluorescence ratio: 1.22 ± 0.056

ATTCGCGCTG
switch fluorescence ratio: 0.994 ± 0.064

ATTCGGACGG
switch fluorescence ratio: 1.026 ± 0.0055

ATTCGGCCTT
switch fluorescence ratio: 1.01 ± 0.043

ATTCGGGTTA
switch fluorescence ratio: 0.99 ± 0.013

ATTCGGTAA
switch fluorescence ratio: 0.9962 ± 0.0072

ATTCGTATTT
switch fluorescence ratio: 0.987 ± 0.029

ATTCGTGGG
switch fluorescence ratio: 1.01 ± 0.017

ATTCGTGGGA
switch fluorescence ratio: 0.9892 ± 0.0074

ATTCGTTAGA
switch fluorescence ratio: 0.999 ± 0.011

ATTCTCTTGT
switch fluorescence ratio: 0.996 ± 0.014

ATTCTGCTGG
switch fluorescence ratio: 1.01 ± 0.013

ATTCTGTTTT
switch fluorescence ratio: 0.986 ± 0.028

ATTCTTACCG
switch fluorescence ratio: 1.09 ± 0.044

ATTCTTGAGA
switch fluorescence ratio: 0.988 ± 0.034

ATTCTTGTTC
switch fluorescence ratio: 0.981 ± 0.05
